The results in this text go back to publication PMC2873925.

In assay [1] the target is Neisseria meningitidis Opc protein (outer membrane adhesin), on acapsulate Opc+ bacteria of serogroup A strain C751 (Neisseria meningitidis serogroup A strain C751) (UniProt Q7DDI3). Briefly: depletion from serum by sequential adsorption with whole bacteria, immuno-dot blot of the serum; a serum sample adsorbed sequentially with three fresh live bacterial suspensions, one hour each; remaining activated Vn (mAb 8E6), total Vn and Fn (polyclonal antibodies) by immuno-dot blot and densitometry.

For assay [2], the target named is Neisseria meningitidis Opc protein, on capsulate Opc+ bacteria of serogroup B strain MC58 (Neisseria meningitidis serogroup B strain MC58). The description is as above.
The target is the same in assay [3].
Assay [4] concerns the target Neisseria meningitidis Opc protein (outer membrane adhesin), on acapsulate Opc+ bacteria of serogroup A strain C751 (Neisseria meningitidis serogroup A strain C751) (UniProt Q7DDI3).

Sequence of fibronectin (human), of normal human serum and purified plasma fibronectin, P02751 32-2477 (natural protein) (P02751 32-2477): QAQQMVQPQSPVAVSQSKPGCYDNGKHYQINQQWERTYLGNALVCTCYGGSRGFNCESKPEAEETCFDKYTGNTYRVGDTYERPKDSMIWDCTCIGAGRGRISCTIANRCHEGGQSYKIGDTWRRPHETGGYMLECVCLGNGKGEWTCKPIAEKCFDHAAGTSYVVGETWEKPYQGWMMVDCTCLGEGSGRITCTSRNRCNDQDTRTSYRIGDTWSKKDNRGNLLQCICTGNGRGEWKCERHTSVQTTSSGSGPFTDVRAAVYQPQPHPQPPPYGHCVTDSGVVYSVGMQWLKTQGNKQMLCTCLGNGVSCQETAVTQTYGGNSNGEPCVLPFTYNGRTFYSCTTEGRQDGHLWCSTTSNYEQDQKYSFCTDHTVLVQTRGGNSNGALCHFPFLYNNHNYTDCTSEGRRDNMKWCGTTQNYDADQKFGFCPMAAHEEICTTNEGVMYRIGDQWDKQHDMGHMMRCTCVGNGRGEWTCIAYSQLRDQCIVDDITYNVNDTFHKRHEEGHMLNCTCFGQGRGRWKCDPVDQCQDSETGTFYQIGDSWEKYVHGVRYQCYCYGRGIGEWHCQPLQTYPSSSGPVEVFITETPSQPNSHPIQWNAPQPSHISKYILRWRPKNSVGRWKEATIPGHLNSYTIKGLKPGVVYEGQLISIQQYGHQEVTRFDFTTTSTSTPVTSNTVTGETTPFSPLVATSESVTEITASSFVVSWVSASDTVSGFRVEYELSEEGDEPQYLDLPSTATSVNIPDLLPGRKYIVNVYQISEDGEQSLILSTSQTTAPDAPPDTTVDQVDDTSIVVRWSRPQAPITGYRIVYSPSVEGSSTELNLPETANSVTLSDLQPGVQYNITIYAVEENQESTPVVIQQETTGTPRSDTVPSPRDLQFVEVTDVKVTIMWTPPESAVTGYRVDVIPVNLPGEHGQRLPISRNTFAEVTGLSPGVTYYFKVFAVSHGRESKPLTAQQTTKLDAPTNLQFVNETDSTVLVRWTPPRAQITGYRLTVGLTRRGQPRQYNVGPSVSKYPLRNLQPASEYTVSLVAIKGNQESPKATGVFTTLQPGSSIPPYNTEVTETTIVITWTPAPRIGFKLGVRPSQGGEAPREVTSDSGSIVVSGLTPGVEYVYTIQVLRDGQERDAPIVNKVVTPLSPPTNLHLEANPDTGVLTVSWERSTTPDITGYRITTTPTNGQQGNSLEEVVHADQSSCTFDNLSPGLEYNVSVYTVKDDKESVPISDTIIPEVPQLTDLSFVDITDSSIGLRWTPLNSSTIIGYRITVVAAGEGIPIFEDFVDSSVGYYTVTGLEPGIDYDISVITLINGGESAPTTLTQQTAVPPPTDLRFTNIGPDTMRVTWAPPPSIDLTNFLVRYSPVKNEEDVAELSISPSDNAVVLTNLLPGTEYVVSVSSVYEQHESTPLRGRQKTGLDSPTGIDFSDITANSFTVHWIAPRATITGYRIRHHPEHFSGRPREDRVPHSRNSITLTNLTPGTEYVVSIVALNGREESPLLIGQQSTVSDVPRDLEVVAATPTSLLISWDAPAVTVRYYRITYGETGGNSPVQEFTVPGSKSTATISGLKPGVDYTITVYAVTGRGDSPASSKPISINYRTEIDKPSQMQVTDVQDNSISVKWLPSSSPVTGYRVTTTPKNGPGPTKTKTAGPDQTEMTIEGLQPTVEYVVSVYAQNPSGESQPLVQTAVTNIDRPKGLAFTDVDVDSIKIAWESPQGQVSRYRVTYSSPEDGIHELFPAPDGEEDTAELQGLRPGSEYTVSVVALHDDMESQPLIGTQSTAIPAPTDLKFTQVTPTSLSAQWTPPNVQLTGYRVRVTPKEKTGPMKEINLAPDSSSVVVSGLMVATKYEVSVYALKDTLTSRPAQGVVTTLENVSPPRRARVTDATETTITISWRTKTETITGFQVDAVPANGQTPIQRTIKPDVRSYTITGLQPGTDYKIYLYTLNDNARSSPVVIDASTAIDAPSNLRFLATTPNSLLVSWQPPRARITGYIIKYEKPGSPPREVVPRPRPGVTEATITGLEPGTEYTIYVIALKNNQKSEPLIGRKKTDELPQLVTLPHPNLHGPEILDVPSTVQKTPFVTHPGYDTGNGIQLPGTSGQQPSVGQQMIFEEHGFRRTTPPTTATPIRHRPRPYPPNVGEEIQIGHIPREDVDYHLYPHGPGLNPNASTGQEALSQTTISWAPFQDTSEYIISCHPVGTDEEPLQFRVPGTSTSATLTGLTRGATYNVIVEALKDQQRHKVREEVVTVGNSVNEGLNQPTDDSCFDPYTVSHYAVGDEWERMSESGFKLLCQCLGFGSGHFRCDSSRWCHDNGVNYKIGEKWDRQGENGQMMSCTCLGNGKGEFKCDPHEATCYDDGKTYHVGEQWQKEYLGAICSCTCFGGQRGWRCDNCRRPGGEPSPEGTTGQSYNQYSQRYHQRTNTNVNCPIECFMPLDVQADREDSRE

Substance “vitronectin of normal human serum (total Vn, detected with polyclonal anti-Vn) (natural protein)” displayed a percent depleted from serum after three adsorptions in assay [1] of 25%.

For “activated vitronectin (human), from normal human serum, purified by heparin-sepharose chromatography (natural protein)”, in assay [2], the percent depleted from serum after three adsorptions stood at 81%. In assay [1], this substance yielded a percent depleted from serum after two adsorptions above 75%.

In assay [1], “fibronectin (human), of normal human serum and purified plasma fibronectin, P02751 32-2477 (natural protein)” came in with a percent depleted from serum after three adsorptions of 20%.

In assay [3], “VA-21S, synthetic peptide of vitronectin residues 48-68 sulphated at residues 56 and 59” came in with an inhibition by VA-21S of VA-26S-mediated adhesion of piliated capsulate Opc+ MC58 to HBMECs (data not illustrated) of 40% and an inhibition by VA-21S of VA-26S-mediated invasion of HBMECs by piliated capsulate Opc+ MC58 (data not illustrated) above 80%. In assay [4], this substance registered an inhibition by VA-21S of VA-26S-mediated adhesion of C751 Opc+ Nm to HBMECs (data not illustrated) of 80% and an inhibition by VA-21S of VA-26S-mediated invasion of HBMECs by C751 Opc+ Nm (data not illustrated) of 100%.
